Experimental data: the RNAGym collection of RNA variant scans (doi:10.1073/pnas.2313332121)
Fewer inactive variants are shown than the library holds.

B1: TPR 5TU (parent)
chain: GGAUCUUCUCGAUCUAACAAAAAAGACAAAUCUGCCACAAAGCUUGAGAGCAUCUUCGGAUGCAGAGGCGGCAGCCUUCGGUGGCGCGAUAGCGCCAACGUUCUCAACUAUGACACGCAAAACGCGUGCUCCGUUGAAUGGAGUUUAUCAUG

Variants of: B1
Test: polymerase ribozyme fitness, log enrichment relative to wild type (log ratio); higher = more active; in vitro selection for triplet polymerase activity
Procedure, shortened: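 Input and output libraries were sequenced on Illumina after a single in vitro selection round, run in triplicate on PCR-built, transcribed mutant libraries of each subunit of a heterodimeric triplet polymerase ribozyme. Selection annealed libraries to a biotinylated primer, the partner subunit and triplets, incubated them frozen at −7 °C, then gel-excised extended constructs for streptavidin-bead capture and RT-PCR. Genotypes with ≥10 input reads and ≥1 read per output were kept. Fitness is the logarithm, taken in base 2, of genotype enrichment divided by wild-type enrichment, using inverse-variance-weighted replicate averages.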

Polymerase ribozyme fitness (log ratio), -0.735:
G11A G94U A150U

Polymerase ribozyme fitness (log ratio), -3.91:
C10G A52G C54U G58C C79A C95U

Polymerase ribozyme fitness (log ratio), -2.73:
A12C A113G
G11C C27U G92U

Polymerase ribozyme fitness (log ratio), -2.78:
C10G

Polymerase ribozyme fitness (log ratio), -4.12:
C10U A40G
G11C C32U C69A A121G

Polymerase ribozyme fitness (log ratio), -1.11:
G11A U55A

Polymerase ribozyme fitness (log ratio), ≤ -4.2:
G11U G42C G68A C85U G128U C132G U139G U148A
C10G A20C C36A U53A U134A A142U
U9G U31G G83C C99U U144G
C10A A21G A29G C51U A52G U78C C95A A122U U146G
U9G C27G U55A C57A G59A
U9G C85U G92U U145A
A12C A20U C79U G84U
U9G U13G A22C A28U A41C C76U G92A U148A
G11U A16U A52C G58C G65A C79A G83U C93U C118A
C10G C54U U55A C79G C93U A98G C116G A122U
C10U A22C A60G C87U G88U
A12C A16C U31C C32G U53A C93G C118G U151C
A12C A21C A23C G136A
A12C U33A G42U A60G C93G
G11A G46U G92A C118U
C10G A89G C103U U134G G141A U151A
G11A C32A C93U
G11A C27G U53A G83U G86A G140A
A12C A37G G46C C96G A110G C116U U135G
U9G G68C G83A G84A C149U
A12C C27U C35U A52C C75A A115C
G11A U55A U77G G83C A142U
A12C C43U A52C G84U C93G C132G
C10G U61C G86C C105G A119C
C10A A17C A20C G34U G58C U90G
A12C U90G A107G A138G
C10A C93U G140C
A12C A21G C36A G48A C93A U135G
C10A C27G G46A C75A C96A
C10G A20G G50U G59C C87U
C10A U15G G58A G86U A98G A138U
G11A C51U G81C G92A U151A
C10U A40G G50U C79G C99U C108G G117A
C10U A22G A49G A142C
G11A U56A C76U U111C U148A
C10U C27G C54U G92C C114G
C10G C18G A21C G25A G65A C79A U104G
A12C C99U C105G
G11C A30U C95A C108G U148A
C10G A12G C27G A49G G62C G67A G68U C93U
C10U U53A C54U U55A C75G C105U G143U U145C U148A
A12C U31A A47G C79A
C10A G11U A30U C36A G48A C87G A122G
G11A C14U U61A G80C C85G C96U A98G C108A
G11A G48A A52C G83A C87U A119C G124C
C10G A64C C76A G92C U135A A138G U151G
G11A A12U C51G U55G G62C U90C C108G
G11C A23U G50C C54G C57U A89G C116A G124C U139A
C10U A23U U33G C96G A115C
C10U U77G C87A A91C C108U G133A
C10G A26C C75A G84A
C10G C69G G83C
G11U A21U G74C G92U
A12C A16G A39U A91C G141C U148G
C10U C54U U55G
G11U A16C A24G G58C C87A C99U
C10A A17C A41G C54G U55A C85U C95U U104G G126U A138G G152U
A12C C14A A30U A39C G58C G83C G124U
G11A G50C C93U A97U G141U
G11C A23C G58A G81C C87A A138U
C10U A39C C57A G59C A66U G67U G81A C85G C105A U135C G140C G143C
C10G A29C A30U G48U U55A A89U C93G G128U
G11C A12G A41U C76A G83A C103G C114A
C10A A37U C79A C85U C87A
G11C C125G A142C
G11U C32A G50A C116U A121U C132U U144G
U9G C43A C54A C75G C93G U146A
C10G G42U C63U C95A C123G
C10U A39G G42U G59A A60C C63U A91U C105U A115C A142C
U9G G74A A91G C93U G141U
G11U G42U G68A G86U C95G A137C
G11U C14G A26G U33G C57A C99G A120G
A12C A37C U53C G86U A97G A113U
A12C U90G
U9G U33A C36A C63U C79G C118A U135A
C10G A39U G84A
C10A A12U A47U C93G A137G
G11A A23U A66C G92A C114U C125A
C10A C54G A73U A120U
C10G A21U A91G
C10G A41G A115G
G11C A20G G34U A137U
G11U C14G A20G C27G A52U G80A A120U G141U U144G
C10G A52C G70U C85G G117U
G11U G42A G50A C54A C95U G124A
C10G C14U A28U U53A A122C
C10G C57G G92C A113C G133A
A12C C87A U130C
C10A A41C C76A A91U C96G A121C U127G
G11U A39U C57U G70A U101G
G11C G25U A52C C54U C95U A107G U144A
G11U A23U G68A U130G U135C
G11A A30C C99A C118U U145G
G11U A19C G68A G74A C87A C149G
C10A C93G
G11C A19G A52G G68C A97G C132A U134C U144A
G11A A73G G92A A121G
G11C C35G A52U C63A G94A C131U
C10G G11C A12G G70U C85G U101C G128A
C10U G42C U53A A66G A91G A110C
C10U C38U A73G A89G A97G C116G A122U C129A
G11A U55G G74C U77C A98U A115C
U9G G59C G92C A107G A115G
G11C A49C U53G G141A
G11A A41U A60G U77C C87A
C10G U56A A89U C99U G112C U145G
C10U A22G U44A G100U C103A
C10G A20C A40U A64G G70U C87U
C10U A17G A23C A24C A26G U31G A39U U44A C54G C57G G86U A97U A142C
G11U A23U C32U C57U G58A U77C C93G C96U A97U G100U A110U G143C
G11C C32G G34C G88C A106G C108A A110U C149G
C10U A19U A21U C32G G42A G80C A137U
A12G A16U C54U A73G G83U G84C C95G G140C
A12G A16U G50A G83C C85A U90C
C10G U61A C93A U139A
G11A C27A A73C G74A G81A A89U C93G G126U
C10U G25C G80A C87G
G11A C14A A40G C79A C93A G124A
C10U U15A G50C C76U C85A
C10G A29U G34U C38A C87G G88A A122U G136C
C10G A97U U130G

Polymerase ribozyme fitness (log ratio), -4.05:
C10A A91U U101G

Polymerase ribozyme fitness (log ratio), -2.16:
C10U

Polymerase ribozyme fitness (log ratio), -3.45:
C10U A20U C57A U145C

Polymerase ribozyme fitness (log ratio), -2.13:
G11A A21U G83U G117U

Polymerase ribozyme fitness (log ratio), -4.17:
G11C U33G C38U A47C A49C G92A A97G U111G C118U G133U

Polymerase ribozyme fitness (log ratio), -3.87:
C10G C75U
C10G U144C

Polymerase ribozyme fitness (log ratio), -4.01:
G11A C85U G92C G143A

Polymerase ribozyme fitness (log ratio), -4:
C10A A22U A37C U134C A142G
C10U A22U A29G U61A C95G

Polymerase ribozyme fitness (log ratio), -4.15:
C10G C18G U55C C57U U61A

Polymerase ribozyme fitness (log ratio), -3.95:
A12C G46U A113U C118U

Polymerase ribozyme fitness (log ratio), -1.9:
G11A C96U

Polymerase ribozyme fitness (log ratio), -1.97:
A12C C87U A115C

Polymerase ribozyme fitness (log ratio), -2.96:
G11A C54G G94A

Polymerase ribozyme fitness (log ratio), -3.34:
G11C A41C C95A U146G

Polymerase ribozyme fitness (log ratio), -4.19:
G11A U13C C36U A49U A60U
C10G U146G
C10A C32G C38U U56G A60G C95A C131U G140U

Polymerase ribozyme fitness (log ratio), -0.118:
A12C G84A

Polymerase ribozyme fitness (log ratio), -3.51:
G11U U53A C132U U146G

Polymerase ribozyme fitness (log ratio), -2.51:
A12C C114U

Polymerase ribozyme fitness (log ratio), -2.87:
C10U C87U

Polymerase ribozyme fitness (log ratio), -3.7:
G11A U56A C99U G143C

Polymerase ribozyme fitness (log ratio), -4.2:
U9G U33A G50A

Polymerase ribozyme fitness (log ratio), -2.65:
G11C C57G U82A G83U G141U

Polymerase ribozyme fitness (log ratio), -0.73:
A12C G92C

Polymerase ribozyme fitness (log ratio), -3.2:
G11U C18U G84U

Polymerase ribozyme fitness (log ratio), -3.28:
G11A A39U

Polymerase ribozyme fitness (log ratio), -1.45:
G11U C38U G58C C96U A98G

Polymerase ribozyme fitness (log ratio), -4.14:
U9G U55A C96G C116A
G11A A91G C114U U144C

Polymerase ribozyme fitness (log ratio), -3.49:
G11C C54U C85U A115G

Polymerase ribozyme fitness (log ratio), -3.86:
U9G A47G

Polymerase ribozyme fitness (log ratio), -2.63:
G11A A49G A60U

Polymerase ribozyme fitness (log ratio), -2.68:
A12C C93A

Polymerase ribozyme fitness (log ratio), -2.83:
C10A

Polymerase ribozyme fitness (log ratio), -2.26:
A12C A16U U145G
